Data set [1] addresses T1, GST-PDZ1+2+3 fusion protein of hDlg (human, UniProt Q12959 201-584). Put plainly: SPR. On the technique in general: SPR reads the build-up and loss of mass on a sensor chip optically.
Data set [2] has as its target T1, GST-PDZ1+2+3 fusion protein of hDlg. Put plainly: SPR. The source holds these as a separate data set.
For data set [3], the target named is PDZ1+2 (A) module of hDlg (human, UniProt Q12959 205-411). Put plainly: SPR.
Data set [4] concerns the molecule itself. Put plainly: SEC.

Several values for one entry are separate records, joined by “and”; a condition that tells them apart may be missing. Equal values may be shown once. Read-outs that look alike come from different tables or passages of the source. Where no end group is shown, it is not given here. The star is where a group is joined. Biotin = O=C1N[C@H]2[C@H](CS[C@H]2CCCCC(=O)*)N1

From PMC2121072 (The Journal of Cell Biology, 1996) come the findings set out here.

T1 sequence (Q12959 201-584): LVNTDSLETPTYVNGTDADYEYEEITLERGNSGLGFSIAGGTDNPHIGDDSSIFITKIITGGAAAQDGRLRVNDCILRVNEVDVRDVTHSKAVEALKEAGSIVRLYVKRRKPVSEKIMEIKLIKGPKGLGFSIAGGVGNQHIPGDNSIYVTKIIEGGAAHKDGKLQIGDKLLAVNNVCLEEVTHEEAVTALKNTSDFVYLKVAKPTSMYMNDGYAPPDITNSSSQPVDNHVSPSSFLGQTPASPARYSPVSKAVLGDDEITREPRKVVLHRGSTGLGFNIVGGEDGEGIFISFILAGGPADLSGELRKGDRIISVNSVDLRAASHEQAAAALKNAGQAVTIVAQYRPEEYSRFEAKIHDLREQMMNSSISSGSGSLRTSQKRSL
Chain of PDZ1+2 (A) module of hDlg (Q12959 205-411): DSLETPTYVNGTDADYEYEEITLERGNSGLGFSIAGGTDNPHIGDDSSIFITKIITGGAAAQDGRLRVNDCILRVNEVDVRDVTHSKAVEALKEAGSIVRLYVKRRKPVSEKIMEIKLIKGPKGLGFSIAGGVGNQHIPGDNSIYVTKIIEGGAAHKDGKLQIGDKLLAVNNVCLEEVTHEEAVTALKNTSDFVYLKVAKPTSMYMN

As usually defined, the Kd is the concentration at which binding is half-saturated. By koff is commonly meant the rate constant with which the complex falls apart. A higher koff goes with a short-lived complex. As a reminder, the kon is the second-order rate constant of association. Regarding Biotin-SGSGDKNNCSNAKAVETDV [biotinylated synthetic peptide of the COOH terminus of the Kv1.4 potassium channel], in data set [1], binding was put at a Kd of 11 nM, the koff was determined as 0.002 s⁻¹ and the kon was found to be 180000 M⁻¹ s⁻¹. In addition, in data set [2], the affinity, expressed as Kd, was 160 nM; the koff was determined as 0.024 s⁻¹; the on-rate constant (kon) worked out at 150000 M⁻¹ s⁻¹. Further, in data set [3], the affinity, expressed as Kd, was 33 ± 5 nM; the dissociation rate constant (koff) is 0.0149 s⁻¹ and 0.0135 s⁻¹; the kon is 413000 M⁻¹ s⁻¹.

B1: PDZ3 (A) domain of hDlg (domain or fragment, human, UniProt Q12959 457-558, looked up)
chain: DDEITREPRKVVLHRGSTGLGFNIVGGEDGEGIFISFILAGGPADLSGELRKGDRIISVNSVDLRAASHEQAAAALKNAGQAVTIVAQYRPEEYSRFEAKIH
In general, stoichiometry N refers to the number of molecules, sites or subunits per partner or assembly. Turning to B1, the “stoichiometry N” value in data set [4] was found to be 2.
